Target: SARS-CoV-2 스파이크 D19 (VSV 슈도바이러스) (SARS-CoV-2) (UniProt P0DTC2)
Assay: cell-based or functional assay

S2E12-LS (antibody)
EC50 (neutralisation, interpolated): 1.4 ng/mL
EC90 (neutralisation, interpolated): 11.9 ng/mL
IC50 (neutralisation): 1.4 ng/mL
